In paper PMC7954794, “Protein context shapes the specificity of SH3 domain-mediated interactions in vivo” (Nature Communications, 2021):

Test system: Abp1 PPIs
Test: DHFR-PCA of Abp1 SH3-swapped baits (Fig. 2B-D, S2C, S2F);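 on Protein-protein interaction distance between Abp1 SH3-swapped baits, to ABP1: Euclidean distance between DHFR-PCA score profiles of the baits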;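 on Protein-protein interaction distance between Abp1 SH3-swapped baits, to BEM1-2: Euclidean distance between DHFR-PCA score profiles of the baits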;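 on Protein-protein interaction distance between Abp1 SH3-swapped baits, to BOI1: Euclidean distance between DHFR-PCA score profiles of the baits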;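 on Protein-protein interaction distance between Abp1 SH3-swapped baits, to BZZ1-1: Euclidean distance between DHFR-PCA score profiles of the baits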
Type: cell-based, Saccharomyces cerevisiae
Outline: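 Interactions were scored by DHFR protein-fragment complementation. DHFR F[1,2]-tagged Abp1 strains, whose SH3 was swapped for yeast or human ortholog domains, were crossed on YPD at 30 °C for 48 h with a 1536-format array of 575 prey-DHFR F[3] strains and 40 negatives, giving four replicates per pair. PCA selection lasted 4 days after double diploid selection.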

[1] = number of PPIs, difference, Abp1 SH3-swapped with the listed SH3, Fig2D,S2F

B1: YBL039C (protein, UniProt P28274 1-579, looked up)
CTP synthase 1: MKYVVVSGGVISGIGKGVLASSTGMLMKTLGLKVTSIKIDPYMNIDAGTMSPLEHGECFVLDDGGETDLDLGNYERYLGVTLTKDHNITTGKIYSHVIAKERKGDYLGKTVQIVPHLTNAIQDWIERVAKIPVDDTGMEPDVCIIELGGTVGDIESAPFVEALRQFQFKVGKENFALIHVSLVPVIHGEQKTKPTQAAIKGLRSLGLVPDMIACRCSETLDKPTIDKIAMFCHVGPEQVVNVHDVNSTYHVPLLLLEQKMIDYLHARLKLDEISLTEEEKQRGLELLSKWKATTGNFDESMETVKIALVGKYTNLKDSYLSVIKALEHSSMKCRRKLDIKWVEATDLEPEAQESNKTKFHEAWNMVSTADGILIPGGFGVRGTEGMVLAARWARENHIPFLGVCLGLQIATIEFTRSVLGRKDSHSAEFYPDIDEKNHVVVFMPEIDKETMGGSMRLGLRPTFFQNETEWSQIKKLYGDVSEVHERHRHRYEINPKMVDELENNGLIFVGKDDTGKRCEILELKNHPYYIATQYHPEYTSKVLDPSKPFLGLVAASAGILQDVIEGKYDLEAGENKFNF
medrep (log2 median colony size normalized to plate background) (Fig2B, bait ABP1, label = prey, Replicates 4): 3.877

B2: BBC1: yeast SH3-containing protein; SH3-deleted or knockout strain (protein, UniProt P47068 1-1157, looked up)
Myosin tail …: MSEPEVPFKVVAQFPYKSDYEDDLNFEKDQEIIVTSVEDAEWYFGEYQDSNGDVIEGIFPKSFVAVQGSEVGKEAESSPNTGSTEQRTIQPEVEQKDLPEPISPETKKETLSGPVPVPAATVPVPAATVPVPAATAVSAQVQHDSSSGNGERKVPMDSPKLKARLSMFNQDITEQVPLPKSTHLDLENIPVKKTIVADAPKYYVPPGIPTNDTSNLERKKSLKENEKKIVPEPINRAQVESGRIETENDQLKKDLPQMSLKERIALLQEQQRLQAAREEELLRKKAKLEQEHERSAVNKNEPYTETEEAEENEKTEPKPEFTPETEHNEEPQMELLAHKEITKTSREADEGTNDIEKEQFLDEYTKENQKVEESQADEARGENVAEESEIGYGHEDREGDNDEEKEEEDSEENRRAALRERMAKLSGASRFGAPVGFNPFGMASGVGNKPSEEPKKKQHKEKEEEEPEQLQELPRAIPVMPFVDPSSNPFFRKSNLSEKNQPTETKTLDPHATTEHEQKQEHGTHAYHNLAAVDNAHPEYSDHDSDEDTDDHEFEDANDGLRKHSMVEQAFQIGNNESENVNSGEKIYPQEPPISHRTAEVSHDIENSSQNTTGNVLPVSSPQTRVARNGSINSLTKSISGENRRKSINEYHDTVSTNSSALTETAQDISMAAPAAPVLSKVSHPEDKVPPHPVPSAPSAPPVPSAPSVPSAPPVPPAPPALSAPSVPPVPPVPPVSSAPPALSAPSIPPVPPTPPAPPAPPAPLALPKHNEVEEHVKSSAPLPPVSEEYHPMPNTAPPLPRAPPVPPATFEFDSEPTATHSHTAPSPPPHQNVTASTPSMMSTQQRVPTSVLSGAEKESRTLPPHVPSLTNRPVDSFHESDTTPKVASIRRSTTHDVGEISNNVKIEFNAQERWWINKSAPPAISNLKLNFLMEIDDHFISKRLHQKWVVRDFYFLFENYSQLRFSLTFNSTSPEKTVTTLQERFPSPVETQSARILDEYAQRFNAKVVEKSHSLINSHIGAKNFVSQIVSEFKDEVIQPIGARTFGATILSYKPEEGIEQLMKSLQKIKPGDILVIRKAKFEAHKKIGKNEIINVGMDSAAPYSSVVTDYDFTKNKFRVIENHEGKIIQNSYKLSHMKSGKLKVFRIVARGYVGW
Protein-protein interaction distance between Abp1 SH3-swapped baits, to ABP1 (Abp1 bait with swapped SH3, distance to bait with ABP1 SH3, sheet Fig2C): 7.08 | Protein-protein interaction distance between Abp1 SH3-swapped baits, to BBC1 (distance to Abp1 bait with BBC1 SH3, sheet Fig2C): 0.00 | Protein-protein interaction distance between Abp1 SH3-swapped baits, to BEM1-1 (distance to Abp1 bait with BEM1-1 SH3, sheet Fig2C): 12.07 | Protein-protein interaction distance between Abp1 SH3-swapped baits, to BEM1-2 (distance to Abp1 bait with BEM1-2 SH3, sheet Fig2C): 30.95 | Protein-protein interaction distance between Abp1 SH3-swapped baits, to BOI1 (distance to Abp1 bait with BOI1 SH3, sheet Fig2C): 9.448 | Protein-protein interaction distance between Abp1 SH3-swapped baits, to BOI2 (distance to Abp1 bait with BOI2 SH3, sheet Fig2C): 12.67 | Protein-protein interaction distance between Abp1 SH3-swapped baits, to BUD14 (distance to Abp1 bait with BUD14 SH3, sheet Fig2C): 15.23 | Protein-protein interaction distance between Abp1 SH3-swapped baits, to BZZ1-1 (distance to Abp1 bait with BZZ1-1 SH3, sheet Fig2C): 7.773 | Protein-protein interaction distance between Abp1 SH3-swapped baits, to BZZ1-2 (distance to Abp1 bait with BZZ1-2 SH3, sheet Fig2C): 9.168 | Protein-protein interaction distance between Abp1 SH3-swapped baits, to CDC25 (distance to Abp1 bait with CDC25 SH3, sheet Fig2C): 24.45 | Protein-protein interaction distance between Abp1 SH3-swapped baits, to CTTN (distance to Abp1 bait with CTTN SH3, sheet Fig2C): 6.802 | Protein-protein interaction distance between Abp1 SH3-swapped baits, to CYK3 (distance to Abp1 bait with CYK3 SH3, sheet Fig2C): 25.11 | Protein-protein interaction distance between Abp1 SH3-swapped baits, to DBNL (distance to Abp1 bait with DBNL SH3, sheet Fig2C): 7.329 | Protein-protein interaction distance between Abp1 SH3-swapped baits, to FUS1 (distance to Abp1 bait with FUS1 SH3, sheet Fig2C): 16.64 | Protein-protein interaction distance between Abp1 SH3-swapped baits, to HCLS1 (distance to Abp1 bait with HCLS1 SH3, sheet Fig2C): 6.39 | Protein-protein interaction distance between Abp1 SH3-swapped baits, to HOF1 (distance to Abp1 bait with HOF1 SH3, sheet Fig2C): 29.63 | Protein-protein interaction distance between Abp1 SH3-swapped baits, to HSE1 (distance to Abp1 bait with HSE1 SH3, sheet Fig2C): 7.295 | Protein-protein interaction distance between Abp1 SH3-swapped baits, to LSB1 (distance to Abp1 bait with LSB1 SH3, sheet Fig2C): 13.47 | Protein-protein interaction distance between Abp1 SH3-swapped baits, to LSB3 (distance to Abp1 bait with LSB3 SH3, sheet Fig2C): 13.63 | Protein-protein interaction distance between Abp1 SH3-swapped baits, to MYO3 (distance to Abp1 bait with MYO3 SH3, sheet Fig2C): 13.06 | Protein-protein interaction distance between Abp1 SH3-swapped baits, to MYO5 (distance to Abp1 bait with MYO5 SH3, sheet Fig2C): 12.56 | Protein-protein interaction distance between Abp1 SH3-swapped baits, to NBP2 (distance to Abp1 bait with NBP2 SH3, sheet Fig2C): 14.24 | Protein-protein interaction distance between Abp1 SH3-swapped baits, to PEX13 (distance to Abp1 bait with PEX13 SH3, sheet Fig2C): 10.86 | Protein-protein interaction distance between Abp1 SH3-swapped baits, to PIN3 (distance to Abp1 bait with PIN3 SH3, sheet Fig2C): 11.25 | Protein-protein interaction distance between Abp1 SH3-swapped baits, to RVS167 (distance to Abp1 bait with RVS167 SH3, sheet Fig2C): 9.304 | Protein-protein interaction distance between Abp1 SH3-swapped baits, to SDC25 (distance to Abp1 bait with SDC25 SH3, sheet Fig2C): 31.85 | Protein-protein interaction distance between Abp1 SH3-swapped baits, to SLA1-1 (distance to Abp1 bait with SLA1-1 SH3, sheet Fig2C): 27.19 | Protein-protein interaction distance between Abp1 SH3-swapped baits, to SLA1-2 (distance to Abp1 bait with SLA1-2 SH3, sheet Fig2C): 16.91 | Protein-protein interaction distance between Abp1 SH3-swapped baits, to SLA1-3 (distance to Abp1 bait with SLA1-3 SH3, sheet Fig2C): 13.32 | Protein-protein interaction distance between Abp1 SH3-swapped baits, to YSC84 (distance to Abp1 bait with YSC84 SH3, sheet Fig2C): 14.14 | PPIs gained by Abp1 - SH3-dependent PPIs gained by Abp1 [1]: 2 | SH3-dependent PPIs - SH3-dependent PPIs gained by Abp1 [1]: 19 | SH3-dependent PPIs gained by Abp1 (number of PPIs, Abp1 SH3-swapped with the listed SH3, DHFR-PCA, Fig2D,S2F): 0 | Interactions in Abp1 (number of interactions of Abp1 carrying the named SH3, sheet FigS2A-B): 78
